Data set [1] deals with the molecule itself. The data set can be described thus: single-molecule fluorescence DNA-stretching assay (HiLo/TIRF microscopy); 42 kb DNA with a single parS tethered at both ends, SxG stain; 0.3 nM ParB^TMR in imaging buffer (40 mM Tris-HCl, 65 mM KCl, 2.5 mM MgCl2, 1 mM CTP); both ParB dimers loaded on the DNA.
Data set [2] deals with the molecule itself. In words: cross-linking; BMOE cysteine cross-linking of ParB^T22C [2 uM] with ~200 bp DNA with parS [2 uM] and 1 mM CTP, room temperature, quenched with DTT, 12% SDS-PAGE.
Data set [3] deals with the molecule itself. The data set can be described thus: cross-linking; BMOE (1 mM) cysteine cross-linking of ParB^S278C at 10 uM in storage buffer (50 mM Tris-HCl pH 7.5, 300 mM NaCl) without DNA, quenched with DTT, 12% SDS-PAGE.

Residue numbers refer to the chain shown, from its start. Numbers in names are those of the source.

B1: TMR-labelled Bacillus subtilis ParB L5C (natural protein, UniProt P26497 1-282, looked up)
chain: MAKGCGKGINALFNQVDLSEETVEEIKIADLRPNPYQPRKHFDDEALAELKESVLQHGILQPLIVRKSLKGYDIVAGERRFRAAKLAGLDTVPAIVRELSEALMREIALLENLQREDLSPLEEAQAYDSLLKHLDLTQEQLAKRLGKSRPHIANHLRLLTLPENIQQLIAEGTLSMGHGRTLLGLKNKNKLEPLVQKVIAEQLNVRQLEQLIQQLNQNVPRETKKKEPVKDAVLKERESYLQNYFGTTVNIKRQKKKGKIEIEFFSNEDLDRILELLSERES
modifications: TMR-maleimide label on the ParB^L5C variant (labelling efficiency 70% of monomers)
notes: ParB (Spo0J) of Bacillus subtilis with L5C, expressed untagged; Untagged; also called ParB^TMR; source: E. coli BL21-Gold (DE3), purified (ammonium sulfate, Heparin, HiTrap SP, Superdex 200), labelled with TMR-maleimide
In the case of B1, the binding result in data set [1] is given as “binds”.

B2: Bacillus subtilis ParB T22C (natural protein, UniProt P26497 1-282, looked up)
chain: B1 chain with C5L, T22C
notes: ParB (Spo0J) of Bacillus subtilis with T22C, expressed untagged; Untagged; C22 of the two chains is cross-linked by BMOE in the N-terminally closed clamp; source: E. coli BL21-Gold (DE3), purified
Consider B2, for which the binding result in data set [2] was “binds”.

B3: Bacillus subtilis ParB S278C (natural protein, UniProt P26497 1-282, looked up)
chain: B1 chain with C5L, S278C
notes: ParB (Spo0J) of Bacillus subtilis with S278C, expressed untagged; Untagged; C278 of the two chains is cross-linked by BMOE at the C-terminus; source: E. coli BL21-Gold (DE3), purified
For the protein B3, the binding result in data set [3] is given as “binds”.

The values above are taken from PMC10681803, “Dynamic ParB–DNA interactions initiate and maintain a partition condensate for bacterial chromosome segregation” (Nucleic Acids Research, 2023).
